What all share (details): remark: other sources report otherwise
The target in assay [1] is SARS-CoV-2 RBD (B.1.1.7) domain (SARS-CoV-2). In words: ELISA. Further details: unit not given beside the values.
For assay [2], the target named is SARS-CoV-2 RBD (B.1.351) domain (SARS-CoV-2). In words: ELISA. Further details: unit not given beside the values.
The target in assay [3] is SARS-CoV-2 RBD (P.1) domain (SARS-CoV-2). Description: ELISA. Further details: unit not given beside the values.
The target in assay [4] is SARS-CoV-2 RBD (B.1.1.7) domain (SARS-CoV-2). Description: RBD/ACE2 blocking ELISA.
In assay [5] the target is SARS-CoV-2 RBD (B.1.351) domain (SARS-CoV-2). Description: RBD/ACE2 blocking ELISA.
In assay [6] the target is SARS-CoV-2 RBD (P.1) domain (SARS-CoV-2). Description: RBD/ACE2 blocking ELISA.
In assay [7] the target is SARS-CoV-2 RBD (B.1.1.7) domain (SARS-CoV-2). Description: ELISA. Further details: unit not given beside the values. The source holds these as a separate data set.
Assay [8] addresses SARS-CoV-2 RBD (B.1.351) domain (SARS-CoV-2). In words: ELISA. On the set-up: unit not given beside the values. The source holds these as a separate data set.
In assay [9] the target is SARS-CoV-2 RBD (P.1) domain (SARS-CoV-2). In words: ELISA. Further details: unit not given beside the values. This is another data set of the same source.
The target of assay [10] is T1, SARS-CoV-2 Spike ectodomain (tri-S), Wuhan (SARS-CoV-2), P0DTC2. Description: tri-S capture ELISA.
The target of assay [11] is T1, SARS-CoV-2 Spike ectodomain (tri-S), …. In words: ELISA, coated antigen.
Assay [12] shares this target. In words: SPR (Biacore), antibody immobilised.
Assay [13] concerns the target SARS-CoV-2 RBD (B.1.1.7) domain (SARS-CoV-2). In words: RBD-ACE2 competition ELISA. On the set-up: unit not given beside the values.
Assay [14] addresses SARS-CoV-2 RBD (B.1.351) domain (SARS-CoV-2). In words: RBD-ACE2 competition ELISA. Further details: unit not given beside the values.
Assay [15] addresses SARS-CoV-2 RBD (P.1) domain (SARS-CoV-2). In words: RBD-ACE2 competition ELISA. Further details: unit not given beside the values.
The target in assay [16] is SARS-CoV-2 RBD (B.1.1.7) domain (SARS-CoV-2). In words: RBD-ACE2 competition ELISA. On the set-up: unit not given beside the values. The source holds these as a separate data set.
Assay [17] concerns the target SARS-CoV-2 RBD (B.1.351) domain (SARS-CoV-2). In words: RBD-ACE2 competition ELISA. On the set-up: unit not given beside the values. This is another data set of the same source.
The target of assay [18] is SARS-CoV-2 RBD (P.1) domain (SARS-CoV-2). In words: RBD-ACE2 competition ELISA. Further details: unit not given beside the values. The source holds these as a separate data set.
Assay [19] addresses T1, SARS-CoV-2 Spike ectodomain (tri-S), …. Description: competition ELISA vs bio-Cv2.1169.
For assay [20] the target is unchanged. In words: competition ELISA vs bio-Cv2.1353.
The target is the same in assay [21]. Description: competition ELISA vs bio-Cv2.3194.
Assay [22] has the same target. In words: competition ELISA vs bio-Cv2.3235.
Assay [23] shares this target. In words: competition ELISA vs bio-Cv2.5213.
Assay [24] shares this target. In words: tri-S/ACE2 blocking ELISA [B].
The target is the same in assay [25]. In words: competition ELISA, spike protein binding to ACE2 ectodomain.
For assay [26] the target is unchanged. Description: biotinylated tri-S on immobilised ACE2, competition ELISA.
Assay [27] has as its target SARS-CoV-2 RBD (P.1) domain (SARS-CoV-2). In words: ELISA.

B1: COV2-2130 (antibody, V domains shown)
VH: EVQLVESGGGLVKPGGSLRLSCAASGFTFRDVWMSWVRQAPGKGLEWVGRIKSKIDGGTTDYAAPVKGRFTISRDDSKNTLYLQMNSLKTEDTAVYYCTTAGSYYYDTVGPGLPEGKFDYWGQGTLVTVSS
VL: not shown
Turning to B1, the AUC in assay [1], in assay [2] and in assay [3] was 3 in each case. Further, the results for the % binding inhibition in [4], in assay [5] and in [6] were 85%, 96% and 90%, respectively.

B2: Cv2.1353 (recombinant human IgG1) (antibody)
heavy: EVQLVESGGGLVQPGGSLRLSCAASGVTVSSNYMNWVRQAPGKGLEWVSVIYSGGSTFYADSVKGRFIISRDNSKNTLYLQMNSLKTEDTAVYYCARDLGPMGFDIWGQGTMVTVSSASTKGPSVFPLAPSSKSTSGGTAALGCLVKDYFPEPVTVSWNSGALTSGVHTFPAVLQSSGLYSLSSVVTVPSSSLGTQTYICNVNHKPSNTKVDKKVEPKSCDKTHTCPPCPAPELLGGPSVFLFPPKPKDTLMISRTPEVTCVVVDVSHEDPEVKFNWYVDGVEVHNAKTKPREEQYNSTYRVVSVLTVLHQDWLNGKEYKCKVSNKALPAPIEKTISKAKQPREPQVYTLPPSRDELTKNQVSLTCLVKGFYPSDIAVEWESNGQPENNYKTTPPVLDSDGSFFLYSKLTVDKSRWQQGNVFSCSVMHEALHNHYTQKSLSLSPGK
light: DIQMTQSPSFLSASVGDRVTITCRASQGISSYLAWYQQKPGKAPKLLIYAASTLQSGVPSRFSGSGSGTEFTLTISSLQPEDFATYYCQQLNSDPPVTFGPGTKVDIKRTVAAPSVFIFPPSDEQLKSGTASVVCLLNNFYPREAKVQWKVDNALQSGNSQESVTEQDSKDSTYSLSSTLTLSKADYEKHKVYACEVTHQGLSSPVTKSFNRGEC
On to B2, for which the AUC (RBD bind.) is 12 in [7], 12 in [8] and 13 in assay [9]. The molecule also returned an AUC in [8] of 13. Besides, the triS Capt-ELISA in [10] is 2.2. This molecule also gave an ELISA OD in assay [11] of 3.5 OD. The triS ELISA (AUC) in assay [11] came out at 14 AUC. The same molecule showed a Kd in assay [12] of 2.22 nM. Besides, the AUC (RBD block.) worked out at 203 in assay [13]; 62 in assay [14]; 66 in assay [15]; 102 in [16]; 31 in assay [17]; 33 in assay [18]. For the same molecule, the % inhibition (competition) stood at 86 in [19]; 88 in assay [20]; 88 in assay [21]; 97 in assay [22]; 90 in assay [23]. The AUC of blocking in assay [24] stood at 156. Besides, the ACE2 Block (%) in assay [25] was determined as 92%. The molecule further registered an EC50 in assay [26] of 0.26 µg/mL.

B3: Cv2.5213 (recombinant human IgG1) (antibody)
heavy: EVQLVESGGGLIQPGGSLRLSCAASGFTVSSNYMSWVRQAPGKGLEWVSLIYSGGSTYYADSVKGRFTISRDNSKNTLYLQMNSLRAEDTAVYYCARDLNYYGMDVWGQGATVTVSSASTKGPSVFPLAPSSKSTSGGTAALGCLVKDYFPEPVTVSWNSGALTSGVHTFPAVLQSSGLYSLSSVVTVPSSSLGTQTYICNVNHKPSNTKVDKKVEPKSCDKTHTCPPCPAPELLGGPSVFLFPPKPKDTLMISRTPEVTCVVVDVSHEDPEVKFNWYVDGVEVHNAKTKPREEQYNSTYRVVSVLTVLHQDWLNGKEYKCKVSNKALPAPIEKTISKAKQPREPQVYTLPPSRDELTKNQVSLTCLVKGFYPSDIAVEWESNGQPENNYKTTPPVLDSDGSFFLYSKLTVDKSRWQQGNVFSCSVMHEALHNHYTQKSLSLSPGK
light: not shown
In the case of B3, in [27], the EC50 (read off the curve) is 0.07 µg/mL. In addition, the AUC (RBD bind.) is 13 in assay [7], 2 in assay [8] and 9 in [9]. For the same molecule, in [8], the AUC was 1. The molecule also had a triS Capt-ELISA in [10] of 2.1. Besides, the ELISA OD in [11] was 3.8 OD. Besides, the triS ELISA (AUC) in [11] is 14.2 AUC. The Kd in assay [12] amounted to 6.54 nM. In addition, the AUC (RBD block.) in [13] amounted to 45; in [14], 18; in assay [15], 9; in assay [16], 22; in assay [17], 9; in assay [18], 4. The % inhibition (competition) in assay [19] came out at 81; in assay [20], 84; in [21], 81; in assay [22] it was 98; in [23] it was 90. The same molecule registered an AUC of blocking in assay [24] of 181. For the same molecule, the ACE2 Block (%) in [25] is 90%. In addition, the EC50 in [26] was 0.22 µg/mL.

B4: Cv2.3235 (recombinant human IgG1) (antibody)
heavy: EVQLVESGGGLIQPGGSLRLSCAASGFTVSRNYMSWVRQAPGKGLEWVSVIYSGGSTFYADSVKGRFTISRDNSKNTLYLQMNSLRAEDTAVYYCARDGDYYGMDVWGQGTTVTVSSASTKGPSVFPLAPSSKSTSGGTAALGCLVKDYFPEPVTVSWNSGALTSGVHTFPAVLQSSGLYSLSSVVTVPSSSLGTQTYICNVNHKPSNTKVDKKVEPKSCDKTHTCPPCPAPELLGGPSVFLFPPKPKDTLMISRTPEVTCVVVDVSHEDPEVKFNWYVDGVEVHNAKTKPREEQYNSTYRVVSVLTVLHQDWLNGKEYKCKVSNKALPAPIEKTISKAKQPREPQVYTLPPSRDELTKNQVSLTCLVKGFYPSDIAVEWESNGQPENNYKTTPPVLDSDGSFFLYSKLTVDKSRWQQGNVFSCSVMHEALHNHYTQKSLSLSPGK
light: DIQMTQSPSFLSASVGDRVTITCRASQGISSFLAWYQQKPGKAPKLLIYGASTLQSGVTSRFSGSGSGTEFTLTISSLQPEDFATYYCQRLDSYPPITFGQGTRLEIKRTVAAPSVFIFPPSDEQLKSGTASVVCLLNNFYPREAKVQWKVDNALQSGNSQESVTEQDSKDSTYSLSSTLTLSKADYEKHKVYACEVTHQGLSSPVTKSFNRGEC
Regarding B4, the AUC (RBD bind.) in [7] amounted to 13; in assay [8] it was 1; in [9] it was 2. The same molecule came in with an AUC in assay [8] of 1. The triS Capt-ELISA in assay [10] came to 1. This molecule also yielded an ELISA OD in assay [11] of 3.6 OD. Further, in assay [11], the triS ELISA (AUC) stood at 13.2 AUC. Also, in assay [12], the Kd worked out at 5.37 nM. In addition, the AUC (RBD block.) was 30 in [13]; 25 in [14]; 4 in [15]; 15 in assay [16]; 13 in assay [17]; 2 in assay [18]. For the same molecule, the % inhibition (competition) in assay [19] came to 34; in assay [20] it was 56; in [21] it was 60; in [22], 93; in [23], 67. The same molecule registered an AUC of blocking in assay [24] of 164. This molecule showed an ACE2 Block (%) in assay [25] of 78%. For the same molecule, the EC50 in [26] is 0.47 µg/mL.
